Data from patent publication US20250368745A1 (published 2025).

Target: T1, human IL-18BP (human, UniProt O95998 31-194)
T1 construct: UniProt printed as 095998; also called hIL-18BP
T1 sequence: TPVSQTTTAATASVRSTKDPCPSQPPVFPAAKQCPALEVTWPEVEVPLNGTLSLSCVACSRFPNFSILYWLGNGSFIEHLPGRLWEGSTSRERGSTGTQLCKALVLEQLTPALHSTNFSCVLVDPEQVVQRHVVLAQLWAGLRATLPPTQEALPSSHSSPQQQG
Test: BLI, apparent KD

B1: SA301a HC-T57A (antibody, name in Kabat numbering, V domains shown)
VH: QVQLQESGPGLVKPSQTLSLTCTVSGYSITSDYNSHWIRQPPGKGLEWIGYIHYSGSANYNPSLKSRVTISRDTSKNQFSLKLSSVTAADTAVYYCARNYGSIYVNYFDYWGQGTLVTVSS
VL: EIVLTQSPATLSLSPGERATLSCSASSSVSYMYWYQQKPGQAPRPLIYRTSNLASGIPARFSGSGSGTDFTLTISSLEPEDFAVYYCQQYHSYPTFGGGTKVEIK
notes: IgG1 kappa
  Kd: 0.9 nM

B2: SA301a HC-T57L (antibody, name in Kabat numbering, V domains shown)
VH: QVQLQESGPGLVKPSQTLSLTCTVSGYSITSDYNSHWIRQPPGKGLEWIGYIHYSGSLNYNPSLKSRVTISRDTSKNQFSLKLSSVTAADTAVYYCARNYGSIYVNYFDYWGQGTLVTVSS
VL: EIVLTQSPATLSLSPGERATLSCSASSSVSYMYWYQQKPGQAPRPLIYRTSNLASGIPARFSGSGSGTDFTLTISSLEPEDFAVYYCQQYHSYPTFGGGTKVEIK
notes: IgG1 kappa
  Kd: 0.32 nM

B3: SA301a HC-T57Q (antibody, name in Kabat numbering, V domains shown)
VH: QVQLQESGPGLVKPSQTLSLTCTVSGYSITSDYNSHWIRQPPGKGLEWIGYIHYSGSQNYNPSLKSRVTISRDTSKNQFSLKLSSVTAADTAVYYCARNYGSIYVNYFDYWGQGTLVTVSS
VL: EIVLTQSPATLSLSPGERATLSCSASSSVSYMYWYQQKPGQAPRPLIYRTSNLASGIPARFSGSGSGTDFTLTISSLEPEDFAVYYCQQYHSYPTFGGGTKVEIK
notes: IgG1 kappa
  Kd: 0.91 nM

B4: SA301a HC-T57R (antibody, name in Kabat numbering, V domains shown)
VH: QVQLQESGPGLVKPSQTLSLTCTVSGYSITSDYNSHWIRQPPGKGLEWIGYIHYSGSRNYNPSLKSRVTISRDTSKNQFSLKLSSVTAADTAVYYCARNYGSIYVNYFDYWGQGTLVTVSS
VL: EIVLTQSPATLSLSPGERATLSCSASSSVSYMYWYQQKPGQAPRPLIYRTSNLASGIPARFSGSGSGTDFTLTISSLEPEDFAVYYCQQYHSYPTFGGGTKVEIK
notes: IgG1 kappa
  Kd: 0.67 nM

B5: SA301a HC-T57V (antibody, name in Kabat numbering, V domains shown)
VH: QVQLQESGPGLVKPSQTLSLTCTVSGYSITSDYNSHWIRQPPGKGLEWIGYIHYSGSVNYNPSLKSRVTISRDTSKNQFSLKLSSVTAADTAVYYCARNYGSIYVNYFDYWGQGTLVTVSS
VL: EIVLTQSPATLSLSPGERATLSCSASSSVSYMYWYQQKPGQAPRPLIYRTSNLASGIPARFSGSGSGTDFTLTISSLEPEDFAVYYCQQYHSYPTFGGGTKVEIK
notes: IgG1 kappa
  Kd: 0.36 nM

B6: SA301a HC-Y59A (antibody, name in Kabat numbering, V domains shown)
VH: QVQLQESGPGLVKPSQTLSLTCTVSGYSITSDYNSHWIRQPPGKGLEWIGYIHYSGSTNANPSLKSRVTISRDTSKNQFSLKLSSVTAADTAVYYCARNYGSIYVNYFDYWGQGTLVTVSS
VL: EIVLTQSPATLSLSPGERATLSCSASSSVSYMYWYQQKPGQAPRPLIYRTSNLASGIPARFSGSGSGTDFTLTISSLEPEDFAVYYCQQYHSYPTFGGGTKVEIK
notes: IgG1 kappa
  Kd: 0.35 nM

B7: SA301a HC-T57K (antibody, name in Kabat numbering, V domains shown)
VH: QVQLQESGPGLVKPSQTLSLTCTVSGYSITSDYNSHWIRQPPGKGLEWIGYIHYSGSKNYNPSLKSRVTISRDTSKNQFSLKLSSVTAADTAVYYCARNYGSIYVNYFDYWGQGTLVTVSS
VL: EIVLTQSPATLSLSPGERATLSCSASSSVSYMYWYQQKPGQAPRPLIYRTSNLASGIPARFSGSGSGTDFTLTISSLEPEDFAVYYCQQYHSYPTFGGGTKVEIK
notes: IgG1 kappa
  Kd: 0.52 nM

B8: SA301a HC-T57Y (antibody, name in Kabat numbering, V domains shown)
VH: QVQLQESGPGLVKPSQTLSLTCTVSGYSITSDYNSHWIRQPPGKGLEWIGYIHYSGSYNYNPSLKSRVTISRDTSKNQFSLKLSSVTAADTAVYYCARNYGSIYVNYFDYWGQGTLVTVSS
VL: EIVLTQSPATLSLSPGERATLSCSASSSVSYMYWYQQKPGQAPRPLIYRTSNLASGIPARFSGSGSGTDFTLTISSLEPEDFAVYYCQQYHSYPTFGGGTKVEIK
notes: IgG1 kappa
  Kd: 1.74 nM

B9: SA301a HC-T57M (antibody, name in Kabat numbering, V domains shown)
VH: QVQLQESGPGLVKPSQTLSLTCTVSGYSITSDYNSHWIRQPPGKGLEWIGYIHYSGSMNYNPSLKSRVTISRDTSKNQFSLKLSSVTAADTAVYYCARNYGSIYVNYFDYWGQGTLVTVSS
VL: EIVLTQSPATLSLSPGERATLSCSASSSVSYMYWYQQKPGQAPRPLIYRTSNLASGIPARFSGSGSGTDFTLTISSLEPEDFAVYYCQQYHSYPTFGGGTKVEIK
notes: IgG1 kappa
  Kd: 0.18 nM

B10: SA301a HC-T57F (antibody, name in Kabat numbering, V domains shown)
VH: QVQLQESGPGLVKPSQTLSLTCTVSGYSITSDYNSHWIRQPPGKGLEWIGYIHYSGSFNYNPSLKSRVTISRDTSKNQFSLKLSSVTAADTAVYYCARNYGSIYVNYFDYWGQGTLVTVSS
VL: EIVLTQSPATLSLSPGERATLSCSASSSVSYMYWYQQKPGQAPRPLIYRTSNLASGIPARFSGSGSGTDFTLTISSLEPEDFAVYYCQQYHSYPTFGGGTKVEIK
notes: IgG1 kappa
  Kd: 1.22 nM

B11: SA301a HC-T57N (antibody, name in Kabat numbering, V domains shown)
VH: QVQLQESGPGLVKPSQTLSLTCTVSGYSITSDYNSHWIRQPPGKGLEWIGYIHYSGSNNYNPSLKSRVTISRDTSKNQFSLKLSSVTAADTAVYYCARNYGSIYVNYFDYWGQGTLVTVSS
VL: EIVLTQSPATLSLSPGERATLSCSASSSVSYMYWYQQKPGQAPRPLIYRTSNLASGIPARFSGSGSGTDFTLTISSLEPEDFAVYYCQQYHSYPTFGGGTKVEIK
notes: IgG1 kappa
  Kd: 0.86 nM

B12: SA301a HC-T57I (antibody, name in Kabat numbering, V domains shown)
VH: QVQLQESGPGLVKPSQTLSLTCTVSGYSITSDYNSHWIRQPPGKGLEWIGYIHYSGSINYNPSLKSRVTISRDTSKNQFSLKLSSVTAADTAVYYCARNYGSIYVNYFDYWGQGTLVTVSS
VL: EIVLTQSPATLSLSPGERATLSCSASSSVSYMYWYQQKPGQAPRPLIYRTSNLASGIPARFSGSGSGTDFTLTISSLEPEDFAVYYCQQYHSYPTFGGGTKVEIK
notes: IgG1 kappa
  Kd: 0.28 nM

B13: SA301a HC-T57D (antibody, name in Kabat numbering, V domains shown)
VH: QVQLQESGPGLVKPSQTLSLTCTVSGYSITSDYNSHWIRQPPGKGLEWIGYIHYSGSDNYNPSLKSRVTISRDTSKNQFSLKLSSVTAADTAVYYCARNYGSIYVNYFDYWGQGTLVTVSS
VL: EIVLTQSPATLSLSPGERATLSCSASSSVSYMYWYQQKPGQAPRPLIYRTSNLASGIPARFSGSGSGTDFTLTISSLEPEDFAVYYCQQYHSYPTFGGGTKVEIK
notes: IgG1 kappa
  Kd: 1.73 nM

B14: SA301a HC-T57S (antibody, name in Kabat numbering, V domains shown)
VH: QVQLQESGPGLVKPSQTLSLTCTVSGYSITSDYNSHWIRQPPGKGLEWIGYIHYSGSSNYNPSLKSRVTISRDTSKNQFSLKLSSVTAADTAVYYCARNYGSIYVNYFDYWGQGTLVTVSS
VL: EIVLTQSPATLSLSPGERATLSCSASSSVSYMYWYQQKPGQAPRPLIYRTSNLASGIPARFSGSGSGTDFTLTISSLEPEDFAVYYCQQYHSYPTFGGGTKVEIK
notes: IgG1 kappa
  Kd: 0.37 nM

B15: SA301a HC-T57E (antibody, name in Kabat numbering, V domains shown)
VH: QVQLQESGPGLVKPSQTLSLTCTVSGYSITSDYNSHWIRQPPGKGLEWIGYIHYSGSENYNPSLKSRVTISRDTSKNQFSLKLSSVTAADTAVYYCARNYGSIYVNYFDYWGQGTLVTVSS
VL: EIVLTQSPATLSLSPGERATLSCSASSSVSYMYWYQQKPGQAPRPLIYRTSNLASGIPARFSGSGSGTDFTLTISSLEPEDFAVYYCQQYHSYPTFGGGTKVEIK
notes: IgG1 kappa
  Kd: 0.42 nM

B16: SA301a HC-T57G (antibody, name in Kabat numbering, V domains shown)
VH: QVQLQESGPGLVKPSQTLSLTCTVSGYSITSDYNSHWIRQPPGKGLEWIGYIHYSGSGNYNPSLKSRVTISRDTSKNQFSLKLSSVTAADTAVYYCARNYGSIYVNYFDYWGQGTLVTVSS
VL: EIVLTQSPATLSLSPGERATLSCSASSSVSYMYWYQQKPGQAPRPLIYRTSNLASGIPARFSGSGSGTDFTLTISSLEPEDFAVYYCQQYHSYPTFGGGTKVEIK
notes: IgG1 kappa
  Kd: 0.11 nM
